Source: publication PMC10858199 (2024)

Target: Amyloid-beta aggregates (Homo sapiens, UniProt P05067)
Test: SPR

B1: CR4 I-domain (protein)
chain: RNFATMMNFVRAVISQFQRPSTQFSLMQFSNKFQTHFTFEEFRRSSNPLSLLASVHQLQGFTYTATAIQNVVHRLFHASYGARRDAAKILIVITDGKKEGDSLDYKDVIPMADAAGIIRYAIGVGLAFQNRNSWKELNDIASKPSQEHIFKVEDFDALKDIQNQLKEKIFAIEGT
Kd: ~1000 nM
